T1: Pot1pC (198-339 V199D) (Schizosaccharomyces pombe, UniProt O13988 198-339, V199D)
T1 sequence: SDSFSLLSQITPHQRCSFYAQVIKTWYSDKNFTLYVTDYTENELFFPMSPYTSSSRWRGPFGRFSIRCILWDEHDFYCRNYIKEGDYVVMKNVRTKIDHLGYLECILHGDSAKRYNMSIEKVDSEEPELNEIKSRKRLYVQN

B1: T4A (ssDNA)
DNA: GGTAACGGT
B2: T3A (ssDNA)
DNA: GGATACGGT
B3: G8C (ssDNA)
DNA: GGTTACGCT
B4: A5T (ssDNA)
DNA: GGTTTCGGT
B5: C6G (ssDNA)
DNA: GGTTAGGGT
B6: 9mer (ssDNA)
DNA: GGTTACGGT
B7: G2C (ssDNA)
DNA: GCTTACGGT

These binders were tested against T1, Pot1pC (198-339 V199D) (assay: ITC).
For B1, the Kd was 21 nM.
Binder B2 has a Kd of 37 nM.
Work on B3 yielded a Kd of 22 nM.
B4 gave a Kd of 63 nM.
B5 showed a Kd of 6 nM.
With B6 the Kd was 24 nM.

Each binder was assayed against T1, Pot1pC (198-339 V199D) (assay: X-ray crystal structure).
B7: binds.

Source: PMC3545015
